The target of series [1] is T1, SARS-CoV-2 Spike RBD (original) (SARS-CoV-2 (original), UniProt P0DTC2 319-541). In words: ELONA; 25 C.
Series [2] addresses T1, SARS-CoV-2 Spike RBD (original). The experiment in a line: EMSA. In general terms: In EMSA bound probe runs differently from free probe, usually more slowly.

Usually Kd stands for the equilibrium constant for the complex coming apart. High values mean a looser complex, low ones a tighter complex.

ACUUGGCCACGUCGACUGAAAUCCUCUUCCUGCAGGGCCAAGUG (structured_RNA) [#2-1-18]: the Kd in series [1] turned out to be 16.8 nM. For ACUUGGCCACGUCGACUGAAAUCCUCUUCCUGCAGGGCCAAGUG (structured_RNA, 2'-F at pyrimidines, 2'-O-methyl at purines) [#2-1-18-2'-F-O], the binding result in series [2] was “binds”. In the case of ACUUGGCCAAUUACCGUAGUUUUUGUAGUCUGCAGGGCCAAGUG (structured_RNA) [#5-2-15], the Kd in series [1] is 24.7 nM. Turning to ACUUGGCCAAUUACCGUAGUUUUUGUAGUCUGCAGGGCCAAGUG (structured_RNA, 2'-F at pyrimidines, 2'-O-methyl at purines) [#5-2-15-2'-F-O], in series [2], the binding result is “binds”.

Turning to ACUUGGCCAUUUUUCUUUUUCUUUUUCUUUUUCUGCAGGGCCAAGUG (ssRNA) [NC-RNA apt], in series [2], the binding result is reported as “no binding”.

Source of the values: PMC10401102, “Repurposing CRISPR/Cas to Discover SARS‐CoV‐2 Detecting and Neutralizing Aptamers”.
